The source of these data is the supplement of paper PMC5998384.

For series [1], the system named is HeLa Kyoto. The experiment in a line: melting temperature (median over replicates), in situ; higher = more thermally stable.
In series [2] the test system is HeLa Kyoto. The experiment in a line: solubility change mitosis vs G1/S (difference of NP-40 vs SDS log2 ratios) (log2 ratio difference); higher = more soluble in mitosis.
In series [3] the test system is HeLa Kyoto. The experiment in a line: thermal stability score vs G1/S (z-score of summed log2 fold changes over temperatures); higher = more thermally stable than in G1/S.
Series [4] relates to HeLa Kyoto. The experiment in a line: solubility in G1/S (NP-40 vs SDS abundance) (log2 ratio); higher = more soluble. As to conditions: cell cycle stage: G1/S.
Where [5] appears, read: cell cycle stage: early G1 (4.5 h after nocodazole release).
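Wherever melting temperature (median over replicates), in situ is given: HeLa Kyoto cells synchronized by double thymidine or nocodazole block, proteins quantified by TMT10plex mass spectrometry, three independent biological replicates.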
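Wherever solubility change mitosis vs G1/S (difference of NP-40 vs SDS log2 ratios) is given: synchronized HeLa Kyoto cells (double thymidine block for G1/S, nocodazole release for mitosis), protein amounts in NP-40 versus SDS lysates quantified by mass spectrometry, three biological replicates.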
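Wherever solubility in G1/S (NP-40 vs SDS abundance) is given: HeLa Kyoto cells arrested at G1/S by double thymidine block, proteins quantified by TMT10plex mass spectrometry in mild NP-40 versus SDS extracts, three biological replicates.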
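Wherever thermal stability score vs G1/S (z-score of summed log2 fold changes over temperatures) is given: synchronized HeLa Kyoto cells, proteins quantified by TMT10plex mass spectrometry, three biological replicates, mitosis taken 0.5 h after nocodazole release, G1/S directly after double thymidine block.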

As to “MDVLVSECSARLLQQEEEIKSLTAEIDRLKNCGCLGASPNLEQLQEENLKLKYRLNILRKSLQAERNKPTKNMINIISRLQEVFGHAIKAAYPDLENPPLLVTPSQQAKFGDYQCNSAMGISQMLKTKEQKVNPREIAENITKHLPDNECIEKVEIAGPGFINVHLRKDFVSEQLTSLLVNGVQLPALGENKKVIVDFSSPNIAKEMHVGHLRSTIIGESISRLFEFAGYDVLRLNHVGDWGTQFGMLIAHLQDKFPDYLTVSPPIGDLQVFYKESKKRFDTEEEFKKRAYQCVVLLQGKNPDITKAWKLICDVSRQELNKIYDALDVSLIERGESFYQDRMNDIVKEFEDRGFVQVDDGRKIVFVPGCSIPLTIVKSDGGYTYDTSDLAAIKQRLFEEKADMIIYVVDNGQSVHFQTIFAAAQMIGWYDPKVTRVFHAGFGVVLGEDKKKFKTRSGETVRLMDLLGEGLKRSMDKLKEKERDKVLTAEELNAAQTSVAYGCIKYADLSHNRLNDYIFSFDKMLDDRGNTAAYLLYAFTRIRSIARLANIDEEMLQKAARETKILLDHEKEWKLGRCILRFPEILQKILDDLFLHTLCDYIYELATAFTEFYDSCYCVEKDRQTGKILKVNMWRMLLCEAVAAVMAKGFDILGIKPVQRM [RARS]”, the melting temperature with HeLa Kyoto [1] (cell cycle stage: G1/S) was found to be 49 °C; with HeLa Kyoto [1] (cell cycle stage: mitosis) it was 48.9 °C. The “solubility change mitosis (log2)” value in the series with HeLa Kyoto [2] is -0.175. Further, the thermal stability score came out at 0.328 with HeLa Kyoto [3] (setting [5]) and 1.95 with HeLa Kyoto [3] (cell cycle stage: mitosis). Further, the “solubility in G1/S (log2)” value with HeLa Kyoto [4] is -0.181.

Consider “MEAARTAVLRVKRKRSAEPAEALVLACKRLRSDAVESAAQKTSEGLERAAENNVFHLVATVCSQEEPVQPLLREVLRPSRDSQQRVRRNLRASAREVRQEGRYRVLSSRRSLGTTSSGQESEYTPGNPEAAGNSGFQLLDLVHEEGEPEAASAGSCKTSDPDVILCNSVELIRERLTVSEDGPGVRRQEEQKHDDYVYDIYYLETATPGWIENILSVQPYSQEWELVNDDQEPEDIYDDEDDENSENNWRNEYPEEESSDGDEDSRGSADYNSLSEEERGSSRQRMWSKYPLDVQKEFGYDSPHDLDSD [SLC7A6OS]”, for which the melting temperature came to 52.4 °C with HeLa Kyoto [1] (cell cycle stage: G1/S) and 54 °C in the series on HeLa Kyoto [1] (cell cycle stage: mitosis). The “solubility change mitosis (log2)” value with HeLa Kyoto [2] was -0.117. The thermal stability score is -0.0342 with HeLa Kyoto [3] (setting [5]) and 0.677 in the series on HeLa Kyoto [3] (cell cycle stage: mitosis). Also, the “solubility in G1/S (log2)” value in the series with HeLa Kyoto [4] was 0.343.

Turning to “MEAAVAAPRPRLLLLVLAAAAAAAAALLPGATALQCFCHLCTKDNFTCVTDGLCFVSVTETTDKVIHNSMCIAEIDLIPRDRPFVCAPSSKTGSVTTTYCCNQDHCNKIELPTTVKSSPGLGPVELAAVIAGPVCFVCISLMLMVYICHNRTVIHHRVPNEEDPSLDRPFISEGTTLKDLIYDMTTSGSGSGLPLLVQRTIARTIVLQESIGKGRFGEVWRGKWRGEEVAVKIFSSREERSWFREAEIYQTVMLRHENILGFIAADNKDNGTWTQLWLVSDYHEHGSLFDYLNRYTVTVEGMIKLALSTASGLAHLHMEIVGTQGKPAIAHRDLKSKNILVKKNGTCCIADLGLAVRHDSATDTIDIAPNHRVGTKRYMAPEVLDDSINMKHFESFKRADIYAMGLVFWEIARRCSIGGIHEDYQLPYYDLVPSDPSVEEMRKVVCEQKLRPNIPNRWQSCEALRVMAKIMRECWYANGAARLTALRIKKTLSQLSQQEGIKM [TGFBR1]”, the melting temperature in the series on HeLa Kyoto [1] (cell cycle stage: G1/S) was determined as 50.2 °C; in the series on HeLa Kyoto [1] (cell cycle stage: mitosis), 50.8 °C. In the series on HeLa Kyoto [2], the “solubility change mitosis (log2)” value was -0.101. The thermal stability score in the series with HeLa Kyoto [3] (setting [5]) was 0.718; in the series with HeLa Kyoto [3] (cell cycle stage: mitosis), 0.929. For the same sequence, in the series on HeLa Kyoto [4], the “solubility in G1/S (log2)” value was -0.00326.

As to “MEAFQELRKPSARLECDHCSFRGTDYENVQIHMGTIHPEFCDEMDAGGLGKMIFYQKSAKLFHCHKCFFTSKMYSNVYYHITSKHASPDKWNDKPKNQLNKETDPVKSPPLPEHQKIPCNSAEPKSIPALSMETQKLGSVLSPESPKPTPLTPLEPQKPGSVVSPELQTPLPSPEPSKPASVSSPEPPKSVPVCESQKLAPVPSPEPQKPAPVSPESVKATLSNPKPQKQSHFPETLGPPSASSPESPVLAASPEPWGPSPAASPESRKSARTTSPEPRKPSPSESPEPWKPFPAVSPEPRRPAPAVSPGSWKPGPPGSPRPWKSNPSASSGPWKPAKPAPSVSPGPWKPIPSVSPGPWKPTPSVSSASWKSSSVSPSSWKSPPASPESWKSGPPELRKTAPTLSPEHWKAVPPVSPELRKPGPPLSPEIRSPAGSPELRKPSGSPDLWKLSPDQRKTSPASLDFPESQKSSRGGSPDLWKSSFFIEPQKPVFPETRKPGPSGPSESPKAASDIWKPVLSIDTEPRKPALFPEPAKTAPPASPEARKRALFPEPRKHALFPELPKSALFSESQKAVELGDELQIDAIDDQKCDILVQEELLASPKKLLEDTLFPSSKKLKKDNQESSDAELSSSEYIKTDLDAMDIKGQESSSDQEQVDVESIDFSKENKMDMTSPEQSRNVLQFTEEKEAFISEEEIAKYMKRGKGKYYCKICCCRAMKKGAVLHHLVNKHNVHSPYKCTICGKAFLLESLLKNHVAAHGQSLLKCPRCNFESNFPRGFKKHLTHCQSRHNEEANKKLMEALEPPLEEQQI [CHAMP1]”, the melting temperature with HeLa Kyoto [1] (cell cycle stage: G1/S) worked out at 48.8 °C; with HeLa Kyoto [1] (cell cycle stage: mitosis) it was 50.3 °C. Further, the “solubility change mitosis (log2)” value in the series on HeLa Kyoto [2] was determined as 0.221. Moreover, the thermal stability score came out at 1.41 in the series with HeLa Kyoto [3] (setting [5]) and 3.68 in the series with HeLa Kyoto [3] (cell cycle stage: mitosis). In the series with HeLa Kyoto [4], the “solubility in G1/S (log2)” value was -0.327.

Turning to “MEASRRFPEAEALSPEQAAHYLRYVKEAKEATKNGDLEEAFKLFNLAKDIFPNEKVLSRIQKIQEALEELAEQGDDEFTDVCNSGLLLYRELHNQLFEHQKEGIAFLYSLYRDGRKGGILADDMGLGKTVQIIAFLSGMFDASLVNHVLLIMPTNLINTWVKEFIKWTPGMRVKTFHGPSKDERTRNLNRIQQRNGVIITTYQMLINNWQQLSSFRGQEFVWDYVILDEAHKIKTSSTKSAICARAIPASNRLLLTGTPIQNNLQELWSLFDFACQGSLLGTLKTFKMEYENPITRAREKDATPGEKALGFKISENLMAIIKPYFLRRTKEDVQKKKSSNPEARLNEKNPDVDAICEMPSLSRKNDLIIWIRLVPLQEEIYRKFVSLDHIKELLMETRSPLAELGVLKKLCDHPRLLSARACCLLNLGTFSAQDGNEGEDSPDVDHIDQVTDDTLMEESGKMIFLMDLLKRLRDEGHQTLVFSQSRQILNIIERLLKNRHFKTLRIDGTVTHLLEREKRINLFQQNKDYSVFLLTTQVGGVGLTLTAATRVVIFDPSWNPATDAQAVDRVYRIGQKENVVVYRLITCGTVEEKIYRRQVFKDSLIRQTTGEKKNPFRYFSKQELRELFTIEDLQNSVTQLQLQSLHAAQRKSDIKLDEHIAYLQSLGIAGISDHDLMYTCDLSVKEELDVVEESHYIQQRVQKAQFLVEFESQNKEFLMEQQRTRNEGAWLREPVFPSSTKKKCPKLNKPQPQPSPLLSTHHTQEEDISSKMASVVIDDLPKEGEKQDLSSIKVNVTTLQDGKGTGSADSIATLPKGFGSVEELCTNSSLGMEKSFATKNEAVQKETLQEGPKQEALQEDPLESFNYVLSKSTKADIGPNLDQLKDDEILRHCNPWPIISITNESQNAESNVSIIEIADDLSASHSALQDAQASEAKLEEEPSASSPQYACDFNLFLEDSADNRQNFSSQSLEHVEKENSLCGSAPNSRAGFVHSKTCLSWEFSEKDDEPEEVVVKAKIRSKARRIVSDGEDEDDSFKDTSSINPFNTSLFQFSSVKQFDASTPKNDISPPGRFFSSQIPSSVNKSMNSRRSLASRRSLINMVLDHVEDMEERLDDSSEAKGPEDYPEEGVEESSGEASKYTEEDPSGETLSSENKSSWLMTSKPSALAQETSLGAPEPLSGEQLVGSPQDKAAEATNDYETLVKRGKELKECGKIQEALNCLVKALDIKSADPEVMLLTLSLYKQLNNN [ERCC6L]”, the values for the melting temperature in the series on HeLa Kyoto [1] (cell cycle stage: G1/S) and in the series on HeLa Kyoto [1] (cell cycle stage: mitosis) were 49.5 °C and 49.1 °C, respectively. Further, in the series with HeLa Kyoto [2], the “solubility change mitosis (log2)” value is -0.161. Further, the thermal stability score with HeLa Kyoto [3] (setting [5]) was 1.6; in the series with HeLa Kyoto [3] (cell cycle stage: mitosis), 2.53. Besides, the “solubility in G1/S (log2)” value with HeLa Kyoto [4] is -0.0349.

Regarding “MEATTAGVGRLEEEALRRKERLKALREKTGRKDKEDGEPKTKHLREEEEEGEKHRELRLRNYVPEDEDLKKRRVPQAKPVAVEEKVKEQLEAAKPEPVIEEVDLANLAPRKPDWDLKRDVAKKLEKLKKRTQRAIAELIRERLKGQEDSLASAVDAATEQKTCDSD [CCDC12]”, the melting temperature in the series on HeLa Kyoto [1] (cell cycle stage: G1/S) worked out at 53.7 °C; in the series with HeLa Kyoto [1] (cell cycle stage: mitosis) it was 53.3 °C. For the same sequence, the “solubility change mitosis (log2)” value in the series with HeLa Kyoto [2] is 0.156. The thermal stability score was -1.88 in the series on HeLa Kyoto [3] (setting [5]) and -2.79 in the series with HeLa Kyoto [3] (cell cycle stage: mitosis). In the series with HeLa Kyoto [4], the “solubility in G1/S (log2)” value is 0.73.
